PMC4738354, “Volta phase plate cryo-EM of the small protein complex Prx3” (Nature Communications, 2016)

Biological target: the molecule itself
Assay: cryo-EM structure; single-particle cryo-EM with Volta phase plate, frozen-hydrated hPrx3 in thick ice; two data sets (7.3 Å and 4.4 Å reconstructions); D6 symmetry imposed in 3D classification of the first data set

B1: human peroxiredoxin-3 (natural protein, UniProt P30048 62-256, looked up)
chain: APAVTQHAPYFKGTAVVNGEFKDLSLDDFKGKYLVLFFYPLDFTFVCPTEIVAFSDKANEFHDVNCEVVAVSVDSHFSHLAWINTPRKNGGLGHMNIALLSDLTKQISRDYGVLLEGSGLALRGLFIIDPNGVIKHLSVNDLPVGRSVEETLRLVKAFQYVETHGEVCPANWTPDSPTIKPSPAASKEYFQKVNQ
notes: peroxiredoxin-3 (Prx3), human mitochondrial isoform; also called hPrx3; Prx3; source: Rosetta (DE3) cells (Novagen), purified (HisTrap, Superdex 200 gel filtration, TEV cleavage of the His-tag); copies: 12
In the case of B1, the “stoichiometry N” value is reported as 12.
